Reference: patent US20180016354A1 (Merck KGaA, published 2018)

Target: T1, EGFR (on EGFR-expressing A431 cells) (UniProt P00533 25-1210, limits assumed)
T1 construct: whole, on cells; A431 is a human cell line; also called EGFR-positive cells; EGFR-overexpressing A431 cells
Assay: flow cytometry on A431 cells

| Binder | binding result |
| --- | --- |
| one-armed anti-EGFR SEED antibody with Azymetric CH3 domain-exchanged Fab, Variant 1 (antibody, hu425 Fv; one Fab arm only; also called hu425 CH3-Azymmetric variant 1) heavy: QVQLVQSGAEVKKPGASVKVSCKASGYTFTSHWMHWVRQAPGQGLEWIGEFNPSNGRTNYNEKFKSKATMTVDTSTNTAYMELSSLRSEDTAVYYCASRDYDYDGRYFDYWGQGTLVTVSSASTKGEPQVYVYPPSREEMTKNQVSLTCLVKGFYPSDIAVEWESNGQPENNYKTTPPVLDSDGSFALVSKLTVDKSRWQQGNVFSCSVMHEALHNHYTQKSLSLSKSCDKTHTCPPCPAPELLGGPSVFLFPPKPKDTLMISRTPEVTCVVVDVSHEDPEVKFNWYVDGVEVHNAKTKPREEQYNSTYRVVSVLTVLHQDWLNGKEYKCKVSNKALPAPIEKTISKAKGQPFRPEVHLLPPSREEMTKNQVSLTCLARGFYPKDIAVEWESNGQPENNYKTTPSRQEPSQGTTTFAVTSKLTVDKSRWQQGNVFSCSVMHEALHNHYTQKTISLSPGK light: DIQMTQSPSSLSASVGDRVTITCSASSSVTYMYWYQQKPGKAPKLLIYDTSNLASGVPSRFSGSGSGTDYTFTISSLQPEDIATYYCQQWSSHIFTFGQGTKVEIKRTVAEPQVYVLPPSREEMTKNQVSLLCLVKGFYPSDIAVEWESNGQPENNYLTWPPVLDSDGSFFLYSKLTVDKSRWQQGNVFSCSVMHEALHNHYTQKSLSLSGEC EPKSSDKTHTCPPCPAPELLGGPSVFLFPPKPKDTLMISRTPEVTCVVVDVSHEDPEVKFNWYVDGVEVHNAKTKPREEQYNSTYRVVSVLTVLHQDWLNGKEYKCKVSNKALPAPIEKTISKAKGQPREPQVYTLPPPSEELALNELVTLTCLVKGFYPSDIAVEWLQGSQELPREKYLTWAPVLDSDGSFFLYSILRVAAEDWKKGDTFSCSVMHEALHNHYTQKSLDRSPGK | binds |
| one-armed anti-EGFR SEED antibody with SEED CH3 domain-exchanged Fab, Variant 1 (antibody, hu425 Fv; one Fab arm only; also called CH3-SEED variant 1) heavy: QVQLVQSGAEVKKPGASVKVSCKASGYTFTSHWMHWVRQAPGQGLEWIGEFNPSNGRTNYNEKFKSKATMTVDTSTNTAYMELSSLRSEDTAVYYCASRDYDYDGRYFDYWGQGTLVTVSSASTKGPEVHLLPPSREEMTKNQVSLTCLARGFYPKDIAVEWESNGQPENNYKTTPSRQEPSQGTTTFAVTSKLTVDKSRWQQGNVFSCSVMHEALHNHYTQKTISLSKSCDKTHTCPPCPAPELLGGPSVFLFPPKPKDTLMISRTPEVTCVVVDVSHEDPEVKFNWYVDGVEVHNAKTKPREEQYNSTYRVVSVLTVLHQDWLNGKEYKCKVSNKALPAPIEKTISKAKGQPFRPEVHLLPPSREEMTKNQVSLTCLARGFYPKDIAVEWESNGQPENNYKTTPSRQEPSQGTTTFAVTSKLTVDKSRWQQGNVFSCSVMHEALHNHYTQKTISLSPGK light: DIQMTQSPSSLSASVGDRVTITCSASSSVTYMYWYQQKPGKAPKLLIYDTSNLASGVPSRFSGSGSGTDYTFTISSLQPEDIATYYCQQWSSHIFTFGQGTKVEIKRTVAEPQVYTLPPPSEELALNELVTLTCLVKGFYPSDIAVEWLQGSQELPREKYLTWAPVLDSDGSFFLYSILRVAAEDWKKGDTFSCSVMHEALHNHYTQKSLDRSGEC EPKSSDKTHTCPPCPAPELLGGPSVFLFPPKPKDTLMISRTPEVTCVVVDVSHEDPEVKFNWYVDGVEVHNAKTKPREEQYNSTYRVVSVLTVLHQDWLNGKEYKCKVSNKALPAPIEKTISKAKGQPREPQVYTLPPPSEELALNELVTLTCLVKGFYPSDIAVEWLQGSQELPREKYLTWAPVLDSDGSFFLYSILRVAAEDWKKGDTFSCSVMHEALHNHYTQKSLDRSPGK | binds |
| one-armed anti-EGFR SEED antibody with KiH2 CH3 domain-exchanged Fab, Variant 1 (antibody, hu425 Fv; one Fab arm only; also called KiH2 variant 1) heavy: QVQLVQSGAEVKKPGASVKVSCKASGYTFTSHWMHWVRQAPGQGLEWIGEFNPSNGRTNYNEKFKSKATMTVDTSTNTAYMELSSLRSEDTAVYYCASRDYDYDGRYFDYWGQGTLVTVSSASTKGEPQVYTLPPSRDELTKNQVSLWCLVKGFYPSDIAVEWESNGQPENNYKTTPPVLDSDGSFFLYSKLTVDKSRWQQGNVFSCSVMHEALHNHYTQKSLSLSKSCDKTHTCPPCPAPELLGGPSVFLFPPKPKDTLMISRTPEVTCVVVDVSHEDPEVKFNWYVDGVEVHNAKTKPREEQYNSTYRVVSVLTVLHQDWLNGKEYKCKVSNKALPAPIEKTISKAKGQPFRPEVHLLPPSREEMTKNQVSLTCLARGFYPKDIAVEWESNGQPENNYKTTPSRQEPSQGTTTFAVTSKLTVDKSRWQQGNVFSCSVMHEALHNHYTQKTISLSPGK light: DIQMTQSPSSLSASVGDRVTITCSASSSVTYMYWYQQKPGKAPKLLIYDTSNLASGVPSRFSGSGSGTDYTFTISSLQPEDIATYYCQQWSSHIFTFGQGTKVEIKRTVAEPQVYTLPPSRDELTKNQVSLSCAVKGFYPSDIAVEWESNGQPENNYKTTPPVLDSDGSFFLVSKLTVDKSRWQQGNVFSCSVMHEALHNHYTQKSLSLSGEC EPKSSDKTHTCPPCPAPELLGGPSVFLFPPKPKDTLMISRTPEVTCVVVDVSHEDPEVKFNWYVDGVEVHNAKTKPREEQYNSTYRVVSVLTVLHQDWLNGKEYKCKVSNKALPAPIEKTISKAKGQPREPQVYTLPPPSEELALNELVTLTCLVKGFYPSDIAVEWLQGSQELPREKYLTWAPVLDSDGSFFLYSILRVAAEDWKKGDTFSCSVMHEALHNHYTQKSLDRSPGK | binds |
| one-armed anti-EGFR SEED antibody with Charge pair CH3 domain-exchanged Fab, Variant 2 (antibody, hu425 Fv; one Fab arm only; also called Charge pair variant 2) heavy: QVQLVQSGAEVKKPGASVKVSCKASGYTFTSHWMHWVRQAPGQGLEWIGEFNPSNGRTNYNEKFKSKATMTVDTSTNTAYMELSSLRSEDTAVYYCASRDYDYDGRYFDYWGQGTLVTVSSASTKGEPQVYTLPPSREEMTKNQVSLTCLVKGFYPSDIAVEWESNGQPENNYDTTPPVLDSDGSFFLYSDLTVDKSRWQQGNVFSCSVMHEALHNHYTQKSLSLSKSCDKTHTCPPCPAPELLGGPSVFLFPPKPKDTLMISRTPEVTCVVVDVSHEDPEVKFNWYVDGVEVHNAKTKPREEQYNSTYRVVSVLTVLHQDWLNGKEYKCKVSNKALPAPIEKTISKAKGQPFRPEVHLLPPSREEMTKNQVSLTCLARGFYPKDIAVEWESNGQPENNYKTTPSRQEPSQGTTTFAVTSKLTVDKSRWQQGNVFSCSVMHEALHNHYTQKTISLSPGK light: DIQMTQSPSSLSASVGDRVTITCSASSSVTYMYWYQQKPGKAPKLLIYDTSNLASGVPSRFSGSGSGTDYTFTISSLQPEDIATYYCQQWSSHIFTFGQGTKVEIKRTVAEPQVYTLPPSRKEMTKNQVSLTCLVKGFYPSDIAVEWESNGQPENNYKTTPPVLKSDGSFFLYSKLTVDKSRWQQGNVFSCSVMHEALHNHYTQKSLSLSGEC EPKSSDKTHTCPPCPAPELLGGPSVFLFPPKPKDTLMISRTPEVTCVVVDVSHEDPEVKFNWYVDGVEVHNAKTKPREEQYNSTYRVVSVLTVLHQDWLNGKEYKCKVSNKALPAPIEKTISKAKGQPREPQVYTLPPPSEELALNELVTLTCLVKGFYPSDIAVEWLQGSQELPREKYLTWAPVLDSDGSFFLYSILRVAAEDWKKGDTFSCSVMHEALHNHYTQKSLDRSPGK | binds |
| one-armed anti-EGFR SEED antibody with KiH2 CH3 domain-exchanged Fab, Variant 2 (antibody, hu425 Fv; one Fab arm only; also called KiH2 variant 2) heavy: QVQLVQSGAEVKKPGASVKVSCKASGYTFTSHWMHWVRQAPGQGLEWIGEFNPSNGRTNYNEKFKSKATMTVDTSTNTAYMELSSLRSEDTAVYYCASRDYDYDGRYFDYWGQGTLVTVSSASTKGEPQVYTLPPSRDELTKNQVSLSCAVKGFYPSDIAVEWESNGQPENNYKTTPPVLDSDGSFFLVSKLTVDKSRWQQGNVFSCSVMHEALHNHYTQKSLSLSKSCDKTHTCPPCPAPELLGGPSVFLFPPKPKDTLMISRTPEVTCVVVDVSHEDPEVKFNWYVDGVEVHNAKTKPREEQYNSTYRVVSVLTVLHQDWLNGKEYKCKVSNKALPAPIEKTISKAKGQPFRPEVHLLPPSREEMTKNQVSLTCLARGFYPKDIAVEWESNGQPENNYKTTPSRQEPSQGTTTFAVTSKLTVDKSRWQQGNVFSCSVMHEALHNHYTQKTISLSPGK light: DIQMTQSPSSLSASVGDRVTITCSASSSVTYMYWYQQKPGKAPKLLIYDTSNLASGVPSRFSGSGSGTDYTFTISSLQPEDIATYYCQQWSSHIFTFGQGTKVEIKRTVAEPQVYTLPPSRDELTKNQVSLWCLVKGFYPSDIAVEWESNGQPENNYKTTPPVLDSDGSFFLYSKLTVDKSRWQQGNVFSCSVMHEALHNHYTQKSLSLSGEC EPKSSDKTHTCPPCPAPELLGGPSVFLFPPKPKDTLMISRTPEVTCVVVDVSHEDPEVKFNWYVDGVEVHNAKTKPREEQYNSTYRVVSVLTVLHQDWLNGKEYKCKVSNKALPAPIEKTISKAKGQPREPQVYTLPPPSEELALNELVTLTCLVKGFYPSDIAVEWLQGSQELPREKYLTWAPVLDSDGSFFLYSILRVAAEDWKKGDTFSCSVMHEALHNHYTQKSLDRSPGK | binds |
| one-armed anti-EGFR SEED antibody with Azymetric CH3 domain-exchanged Fab, Variant 2 (antibody, hu425 Fv; one Fab arm only; also called hu425 CH3-Azymmetric variant 2) heavy: QVQLVQSGAEVKKPGASVKVSCKASGYTFTSHWMHWVRQAPGQGLEWIGEFNPSNGRTNYNEKFKSKATMTVDTSTNTAYMELSSLRSEDTAVYYCASRDYDYDGRYFDYWGQGTLVTVSSASTKGEPQVYVLPPSREEMTKNQVSLLCLVKGFYPSDIAVEWESNGQPENNYLTWPPVLDSDGSFFLYSKLTVDKSRWQQGNVFSCSVMHEALHNHYTQKSLSLSKSCDKTHTCPPCPAPELLGGPSVFLFPPKPKDTLMISRTPEVTCVVVDVSHEDPEVKFNWYVDGVEVHNAKTKPREEQYNSTYRVVSVLTVLHQDWLNGKEYKCKVSNKALPAPIEKTISKAKGQPFRPEVHLLPPSREEMTKNQVSLTCLARGFYPKDIAVEWESNGQPENNYKTTPSRQEPSQGTTTFAVTSKLTVDKSRWQQGNVFSCSVMHEALHNHYTQKTISLSPGK light: DIQMTQSPSSLSASVGDRVTITCSASSSVTYMYWYQQKPGKAPKLLIYDTSNLASGVPSRFSGSGSGTDYTFTISSLQPEDIATYYCQQWSSHIFTFGQGTKVEIKRTVAEPQVYVYPPSREEMTKNQVSLTCLVKGFYPSDIAVEWESNGQPENNYKTTPPVLDSDGSFALVSKLTVDKSRWQQGNVFSCSVMHEALHNHYTQKSLSLSGEC EPKSSDKTHTCPPCPAPELLGGPSVFLFPPKPKDTLMISRTPEVTCVVVDVSHEDPEVKFNWYVDGVEVHNAKTKPREEQYNSTYRVVSVLTVLHQDWLNGKEYKCKVSNKALPAPIEKTISKAKGQPREPQVYTLPPPSEELALNELVTLTCLVKGFYPSDIAVEWLQGSQELPREKYLTWAPVLDSDGSFFLYSILRVAAEDWKKGDTFSCSVMHEALHNHYTQKSLDRSPGK | binds |
